# *1 amine or outer side, *2 acyl side, *3 side chain or, on linkers, in order; H or OH if unused. Bridges are numbered along the chain shown (N, C = ends). Primed or numbered codes have the meaning given here. Where no end group is shown, it is not given here. [ ]: non-standard residue; d: D form. The star is where a group is joined. TBMB(SCH2CH2NH-DOTA) = O=C(O)CN1CCN(CC(=O)O)CCN(CC(=O)NCCSCc2cc(C[*:1])cc(C[*:2])c2)CCN(CC(=O)O)CC1; Ttds = 1,13-diamino-4,7,10-trioxatridecan-succinamic acid, NCCCOCCOCCOCCCNC(=O)CCC(=O)*; DOTA(In) = O=C1CN2CCN3CCN(CC(=O)*)CCN(CC2)CC(=O)[O][In]([O]1)[O]C(=O)C3; DOTA(Lu) = O=C1CN2CCN3CCN(CC(=O)*)CCN(CC2)CC(=O)[O][Lu]([O]1)[O]C(=O)C3; APAc″ = 4-amino-1-carboxymethylpiperidine, NC1CCN(CC(=O)*)CC1; dE(AGLU) = D-glutamic acid bearing 1-amino-1-deoxy-D-glucitol; Pro(trans-4-NH2) = O=C([C@@H]1C[C@@H](N[*:3])CN1[*:1])[*:2]; DOTA = O=C(O)CN1CCN(CC(=O)O)CCN(CC(=O)*)CCN(CC(=O)O)CC1; MeO2kDaPEGAc = polydisperse 2 kDa PEG (methoxy, acetyl); 3MeBn = 3-methyl-benzylidene (derived from 1,3-xylene); 2Lut = 2,6-lutidylidene bridge between two thiols; Trp(5-Br) = N[C@@H](Cc1c[nH]c2ccc(Br)cc12)C(=O)O; Trp(5-Cl) = N[C@@H](Cc1c[nH]c2ccc(Cl)cc12)C(=O)O; Pyridine(2,6-diCH2) = c1cc(C[*:1])nc(C[*:2])c1; Trp(6-F) = N[C@@H](Cc1c[nH]c2cc(F)ccc12)C(=O)O; 2Lut″ = 2,6-lutidylidene linking two thiols; APAc = 4-amino-1-carboxymethylpiperidine; mXylylene = c1cc(C[*:1])cc(C[*:2])c1; LuDOTA = DOTA Lutetium(III) complex; Glutaryl = O=C(CCCC(=O)[*:2])[*:1]; AGLU = 1-amino-1-deoxy-D-glucitol; Hyp = O=C(O)[C@@H]1C[C@@H](O)CN1; Cysteamide = C(CS[*:3])N[*:1]; Suc = O=C(CCC(=O)[*:2])[*:1]; Api = NC1(C(=O)O)CCNCC1; Thp = NC1(C(=O)O)CCOCC1; Aib = CC(C)(N)C(=O)O; Nleu′ = N-leucine; Sar = CNCC(=O)O
# B1: AGLU-Glutar-Asp-Trp-5Brw-Tap-Glu-leu-[Cys(2Lut)-Apc(DOTA)-Leu-Ile-Cys]-APAc-glu(AGLU)-NH2 (peptide)
# peptide: DWXXEXCXLIC
# modifications: N-term AGLU-Glutar; 5Brw; Tap; leu (D-Leu); thioether cycle [Cys(2Lut)..Cys]; Apc(DOTA); C-term APAc-glu(AGLU)-NH2
# B2: Ac-Asp-Trp-5Clw-Tap(AGLU-Glutar)-Glu-leu-[Cys(2Lut)-Thp-Leu-Ile-Cys]-NH2 (peptide)
# peptide: Ac-DW[Trp(5-Cl)][Pro(trans-4-NH2)]E[dL]C[Thp]LIC-NH2
# modifications: linker 7-11 via Pyridine(2,6-diCH2); not fully specified (residue 4); printed as Ac-Asp-Trp-5Clw-Tap(AGLU-Glutar)-Glu-leu-[Cys(2Lut)-Thp-Leu-Ile-Cys]-NH2
# Target: human Gastric Inhibitory Peptide Receptor (human) (UniProt P48546)
# Experiment: FACS competition with GIP-057 on CHO-K1-hGIPR cells; pIC50 category A: >8.0
# human Gastric Inhibitory Peptide Receptor (human), sequence (P48546 22-466 limits assumed): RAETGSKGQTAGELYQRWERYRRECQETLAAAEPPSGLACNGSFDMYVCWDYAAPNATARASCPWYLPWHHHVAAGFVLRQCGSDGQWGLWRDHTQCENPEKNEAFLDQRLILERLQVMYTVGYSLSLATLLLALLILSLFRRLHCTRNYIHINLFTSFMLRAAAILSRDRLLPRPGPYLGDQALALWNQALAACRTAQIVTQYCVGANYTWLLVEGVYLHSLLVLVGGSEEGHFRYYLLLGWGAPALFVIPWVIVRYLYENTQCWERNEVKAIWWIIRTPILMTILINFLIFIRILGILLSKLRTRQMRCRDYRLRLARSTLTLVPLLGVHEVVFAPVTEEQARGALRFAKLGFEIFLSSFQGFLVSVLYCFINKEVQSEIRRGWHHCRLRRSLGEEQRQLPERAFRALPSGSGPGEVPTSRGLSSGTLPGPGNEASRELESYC
row,pIC50,Binder
1,> 8 pic50,"Ac-DW[Trp(5-Cl)][Hyp]E[dL]C[Thp]LIC-NH2 (linker 7-11 via Pyridine(2,6-diCH2)) [Ac-Asp-Trp-5Clw-Hyp-Glu-leu-[Cys(2Lut)-Thp-Leu-Ile-Cys]-NH2]"
2,> 8 pic50,{DOTA-Ttds}-D[Trp(6-F)][Trp(5-Br)]PE[dL]C[Aib]LI[Cysteamide] (linker 7-11 via mXylylene) [DOTA-Ttds-Asp-6Fw-5Brw-Pro-Glu-leu-[Cys(3MeBn)-Aib-Leu-Ile-AET]]
3,> 8 pic50,"{LuDOTA-Ttds}-DW[Trp(5-Cl)]PE[dL]C[Aib]LI[Cysteamide] (linker 7-11 via Pyridine(2,6-diCH2)) [LuDOTA-Ttds-Asp-Trp-5Clw-Pro-Glu-leu-[Cys(2Lut)-Aib-Leu-Ile-AET]]"
4,> 8 pic50,Suc-W[Trp(5-Cl)][Hyp]E[dL]C[Thp]LIC-{APAc-Lys(LuDOTA)-NH2} (linker 6-10 via 2Lut; also: Lu complex of DOTA) [HO-Succinyl-Trp-5Clw-Hyp-Glu-leu-[Cys(2Lut)-Thp-Leu-Ile-Cys]-APAc-Lys(LuDOTA)-NH2]
5,> 8 pic50,W[Trp(5-Cl)][Hyp]E[dL]C[Thp]LIC-{dK(DOTA)-NH2} (linker 6-10 via 2Lut; not fully specified (N-terminus)) [HO-Succinyl-Trp-5Clw-Hyp-Glu-leu-[Cys(2Lut)-Thp-Leu-Ile-Cys]-lys(DOTA)-NH2]
6,> 8 pic50,"Suc-W[Trp(5-Cl)][Hyp]E[dL]C[Thp]LIC-{Lys(DOTA)-NH2} (linker 6-10 via Pyridine(2,6-diCH2)) [HO-Succinyl-Trp-5Clw-Hyp-Glu-leu-[Cys(2Lut)-Thp-Leu-Ile-Cys]-Lys(DOTA)-NH2]"
7,> 8 pic50,B1
8,> 8 pic50,B2
9,> 8 pic50,"{AGLU-Glutaryl}-DW[Trp(5-Cl)][Hyp]E[dL]C[Thp]LIC-{APAc-dE(AGLU)-NH2} (linker 7-11 via Pyridine(2,6-diCH2)) [AGLU-Glutar-Asp-Trp-5Clw-Hyp-Glu-leu-[Cys(2Lut)-Thp-Leu-Ile-Cys]-APAc-glu(AGLU)-NH2]"
10,> 8 pic50,"{LuDOTA-APAc″}-DW[Trp(5-Cl)][Hyp]E[dL]C[Thp]LI[Cysteamide] (linker 7-11 via Pyridine(2,6-diCH2)) [LuDOTA-APAc-Asp-Trp-5Clw-Hyp-Glu-leu-[Cys(2Lut)-Thp-Leu-Ile-AET]]"
11,> 8 pic50,{DOTA(In)-Ttds}-DW[Trp(5-Cl)]PE[dL]C[Aib]LI[Cysteamide] (linker 7-11 via 2Lut; also: DOTA as indium complex (InDOTA)) [InDOTA-Ttds-Asp-Trp-5Clw-Pro-Glu-leu-[Cys(2Lut)-Aib-Leu-Ile-AET]]
12,> 8 pic50,"{AGLU-Glutaryl-APAc}-DW[Trp(5-Cl)][Pro(trans-4-NH2)]E[dL]C[Api](DOTA)LIC-{APAc-dE(AGLU)-NH2} (linker 7-11 via Pyridine(2,6-diCH2)) [AGLU-Glutar-APAc-Asp-Trp-5Clw-Tap-Glu-leu-[Cys(2Lut)-Apc(DOTA)-Leu-Ile-Cys]-APAc-glu(AGLU)-NH2]"
13,> 8 pic50,Suc-W[Trp(5-Cl)][Hyp]E[dL]C[Api](DOTA(Lu))LI[Cysteamide] (linker 6-10 via 2Lut; also: Lu complex of DOTA) [HO-Succinyl-Trp-5Clw-Hyp-Glu-leu-[Cys(2Lut)-Apc(LuDOTA)-Leu-Ile-AET]]
14,> 8 pic50,{DOTA(In)-Ttds}-DW[Trp(5-Cl)][Sar]E[dL]C[Aib]LI[Cysteamide] (linker 7-11 via 3MeBn; also: DOTA as indium complex (InDOTA)) [InDOTA-Ttds-Asp-Trp-5Clw-Nmg-Glu-leu-[Cys(3MeBn)-Aib-Leu-Ile-AET]]
15,> 8 pic50,Ac-DW[Trp(5-Cl)][Pro(trans-4-NH2)]E[dL]C[Api](DOTA)LIC-NH2 (linker 7-11 via 2Lut″) [Ac-Asp-Trp-5Clw-Tap-Glu-leu-[Cys(2Lut)-Apc(DOTA)-Leu-Ile-Cys]-NH2]
16,> 8 pic50,"Ac-DW[Trp(5-Cl)][Nleu′]E[dL]C[Thp]LIC-NH2 (linker 7-11 via Pyridine(2,6-diCH2)) [Ac-Asp-Trp-5Clw-Nleu-Glu-leu-[Cys(2Lut)-Thp-Leu-Ile-Cys]-NH2]"
17,> 8 pic50,Ac-DW[Trp(5-Cl)][Hyp]E[dL]C[Thp]LIC-NH2 (linker 7-11 via TBMB(SCH2CH2NH-DOTA)) [Ac-Asp-Trp-5Clw-Hyp-Glu-leu-[Cys(tMeBn(DOTA-AET))-Thp-Leu-Ile-Cys]-NH2]
18,> 8 pic50,"MeO2kDaPEGAc-DW[Trp(5-Cl)][Hyp]E[dL]C[Thp]LIC-{dK(DOTA)-NH2} (linker 7-11 via Pyridine(2,6-diCH2)) [MeO2kDaPEGAc-Asp-Trp-5Clw-Hyp-Glu-leu-[Cys(2Lut)-Thp-Leu-Ile-Cys]-lys(DOTA)-NH2]"
19,> 8 pic50,"Ac-DW[Trp(5-Cl)][Hyp]E[dL]C[Thp]LIC-OH (linker 7-11 via Pyridine(2,6-diCH2)) [Ac-Asp-Trp-5Clw-Hyp-Glu-leu-[Cys(2Lut)-Thp-Leu-Ile-Cys]-OH]"

# Reference: patent US20250296971A1, “GASTRIC INHIBITORY PEPTIDE RECEPTOR LIGANDS” (priority 2021, published 2025)
